Data taken from US20250320252A1, “LONG-ACTING DUAL GIP/GLP-1 PEPTIDE CONJUGATES AND METHODS OF USE” (The Scripps Research Institute, priority 2021, published 2025).

Key:
[1] = target: cynomolgus monkey GLP1R (cynomolgus monkey) (UniProt F8V479); test: cell-based or functional assay
[2] = target: cynomolgus monkey GIPR (cynomolgus monkey); test: cell-based or functional assay

Substance	In Vitro Potency GLP1R EC50 [nM], Cyno [1] [nM]	In Vitro Potency GIPR EC50 [nM], Cyno [2] [nM]
Semaglutide (peptide)	0.13	
Tirzepatide (peptide)		0.08
